Biological target: T1, MBP-TaBZR1 (Triticum aestivum, UniProt A0A3B6AUH8 1-313)
T1 sequence: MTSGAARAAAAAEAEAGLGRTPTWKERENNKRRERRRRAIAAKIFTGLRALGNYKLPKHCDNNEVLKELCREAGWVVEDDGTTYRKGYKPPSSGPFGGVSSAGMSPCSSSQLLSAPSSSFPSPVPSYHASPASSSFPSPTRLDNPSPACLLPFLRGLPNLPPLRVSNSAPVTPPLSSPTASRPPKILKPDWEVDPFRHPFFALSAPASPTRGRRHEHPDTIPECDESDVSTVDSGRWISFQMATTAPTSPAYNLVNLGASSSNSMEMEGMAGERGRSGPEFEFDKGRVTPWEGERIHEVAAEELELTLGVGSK
Assay: EMSA; 1 nM probe; 1x LightShift binding buffer, 50 ng poly(dI-dC), 2.5% glycerol, 0.05% NP-40, 50 mM KCl, 5 mM MgCl2, 2 mM EDTA pH 8.0, 1 nM biotin probe, 25 C 20 min, 6% PAGE
Conditions: protein: recombinant; tags: N-terminal MBP (pCold-MBP); chain copies: 2; label: biotin (forward strand primer marked bio); blunt

B1: TaSAMT1-B promoter E-box probe (dsDNA)
DNA 1: CACGCGCATACGTGCTCATATGGCAATGAG
DNA 2: CTCATTGCCATATGAGCACGTATGCGCGTG
- binding result: binds
